Data published in patent US20160297892A1 (Novo Nordisk, published 2016).
Numbering of substitutions follows the chain as printed.

T1: EGF1-4 domains of human Protein S with C-terminal HPC4 tag (human, UniProt P07225 114-286, partial hydroxylation of Asn or Asp in the EGF domains (detected by MS))
T1 construct: also called hEGF1-4; human Protein S EGF1-4
T1 sequence: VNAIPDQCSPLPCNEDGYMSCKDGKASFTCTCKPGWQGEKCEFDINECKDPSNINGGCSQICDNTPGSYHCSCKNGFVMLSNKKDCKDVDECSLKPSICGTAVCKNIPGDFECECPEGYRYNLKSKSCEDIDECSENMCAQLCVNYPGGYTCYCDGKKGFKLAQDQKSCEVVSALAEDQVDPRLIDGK

T2: EGF domain 1 and 2 of recombinant human Protein S (human, UniProt P07225 114-200, limits assumed)
T2 construct: domain: EGF domain 1 and 2; also called hEGF1-2
T2 sequence (looked up): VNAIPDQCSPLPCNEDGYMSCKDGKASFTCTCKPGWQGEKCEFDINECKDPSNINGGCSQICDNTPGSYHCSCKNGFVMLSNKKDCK

T3: Gla-domain deleted recombinant human Protein S (human, UniProt P07225 114-676)
T3 construct: also called hPS-dGla; desGla human Protein S
T3 sequence: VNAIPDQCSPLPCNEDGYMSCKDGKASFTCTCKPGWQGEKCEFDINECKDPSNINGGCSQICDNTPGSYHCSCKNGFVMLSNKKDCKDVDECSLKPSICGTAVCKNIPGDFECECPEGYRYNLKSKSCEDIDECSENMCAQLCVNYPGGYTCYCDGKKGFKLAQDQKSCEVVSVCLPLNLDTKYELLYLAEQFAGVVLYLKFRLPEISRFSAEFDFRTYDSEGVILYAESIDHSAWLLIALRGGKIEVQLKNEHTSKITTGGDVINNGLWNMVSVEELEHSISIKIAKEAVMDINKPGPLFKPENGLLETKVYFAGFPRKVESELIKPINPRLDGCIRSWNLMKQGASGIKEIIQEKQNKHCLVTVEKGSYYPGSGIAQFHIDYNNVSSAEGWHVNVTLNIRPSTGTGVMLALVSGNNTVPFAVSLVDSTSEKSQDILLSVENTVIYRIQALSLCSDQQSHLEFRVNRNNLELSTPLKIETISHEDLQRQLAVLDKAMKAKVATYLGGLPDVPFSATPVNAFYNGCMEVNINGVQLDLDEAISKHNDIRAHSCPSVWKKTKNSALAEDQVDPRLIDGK

T4: human Protein S (plasma derived) (human, UniProt P07225 42-676)
T4 construct: Bought plasma-derived human Protein S (Haematologic Technologies or Enzyme Research Laboratories); also called Plasma PS; free Protein S
T4 sequence: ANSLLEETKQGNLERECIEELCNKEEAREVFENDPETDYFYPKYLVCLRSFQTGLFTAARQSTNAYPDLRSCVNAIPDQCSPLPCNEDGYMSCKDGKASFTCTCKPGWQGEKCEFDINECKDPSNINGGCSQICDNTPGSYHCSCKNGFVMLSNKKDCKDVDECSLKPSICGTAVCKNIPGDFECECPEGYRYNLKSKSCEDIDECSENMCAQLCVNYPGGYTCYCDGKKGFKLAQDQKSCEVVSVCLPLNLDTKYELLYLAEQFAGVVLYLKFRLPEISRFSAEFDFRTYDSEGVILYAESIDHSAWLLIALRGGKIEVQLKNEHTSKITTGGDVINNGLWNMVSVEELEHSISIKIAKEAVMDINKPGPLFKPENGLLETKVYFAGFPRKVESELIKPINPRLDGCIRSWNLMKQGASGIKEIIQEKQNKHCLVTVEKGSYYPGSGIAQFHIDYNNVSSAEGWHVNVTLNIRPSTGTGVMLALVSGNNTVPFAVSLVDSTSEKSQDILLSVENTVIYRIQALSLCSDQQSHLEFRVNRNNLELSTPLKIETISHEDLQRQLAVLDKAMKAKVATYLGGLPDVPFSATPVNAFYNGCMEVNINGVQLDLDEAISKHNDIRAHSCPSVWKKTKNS

T5: EGF domain 3 and 4 of recombinant human Protein S (human, UniProt P07225 201-286, limits assumed)
T5 construct: domain: EGF domain 3 and 4; also called hEGF3-4
T5 sequence (looked up): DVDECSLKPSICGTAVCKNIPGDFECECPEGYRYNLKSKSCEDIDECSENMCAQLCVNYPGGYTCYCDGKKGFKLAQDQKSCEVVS

B1: M-hProtS-6F151A2 monoclonal antibody (antibody, mouse IgG1, V domains shown)
VH: EVQLQQSGAELVRSGASVKLSCTASGFNIKDNYIHWVKQRPEQGLEWIGWIDPENGDTEYAPKFQGKATMTADTSSNTAYLQLSSLTSEDTAVYYCSAYGAAYWGQGTLVTVSA
VL: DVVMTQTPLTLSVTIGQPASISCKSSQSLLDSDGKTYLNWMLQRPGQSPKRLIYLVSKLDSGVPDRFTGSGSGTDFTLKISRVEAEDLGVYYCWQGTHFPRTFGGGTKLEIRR
notes: Purified from hybridoma supernatant; mouse IgG1, kappa
B2: M-hProtS-6F206A1 monoclonal antibody (antibody, mouse IgG1, V domains shown)
VH: QVQLQQSGAEMVRPGSSVKISCKASGYAFSSHWMNWVKQRPGQGLEWIGQIYPGDGDTNYNGKFRGKAIVTADTSSSTAYLQLSSLTSEDTAVFFCAPGYHGTSYWFAYWGQGTLVTVSA
VL: DIQMSQSPSSLSASLGDTVTITCHASQNINIWLSWYQQKPGNILTLLIYKASNLYTGVPSRFSGSGSGTDFTLTISSLQPEDIATYYCQQGQSFPLTFGTGTRLELKR
notes: as for B1
B3: M-hProtS-3F38A2 monoclonal antibody (antibody, mouse IgG1, V domains shown)
VH: EVLLQQSGPELVKPGASVKIPCKASGYTFTDYNMDWVKQSHGKSLEWIGDINPNNGDTFYNQKFKGKATLTVDKSSSTAYMELRSLTSEDTAVYYCARSEIFTTAPDYGMGYWGQGTSVTVSS
VL: ENVLTQSPAIMSASPGEKVTMTCRASSSVSSSYLHWYQQRSGASPKLWIYGTSNLASGVPARFSGSGSGTSYSLTISSVEAEDAATYYCQQYSGYPRTFGGGTKLEIKR
notes: as for B1
B4: M-hProtS-3F62A5 monoclonal antibody (antibody, mouse IgG1, V domains shown)
VH: B3 VH with P21T, N52D, D57G, F59I, K63E, K65T, K74T, A97V, M110V, G111D
VL: B3 VL with Q38R, R40K, G51S, S78R, L105V
notes: as for B1
B5: M-hProtS-2F382A1 monoclonal antibody (antibody, mouse IgG1, V domains shown)
VH: EVKLEESGGGLVQPGGSMKLSCAASGFTFSDAWMGWVRQSPEKGLEWVAEIRGKANNHATYYSESVKGRFTISRDDSKSSVYLQMNSLRAEDTGIFYCCLITAFLFDYWGQGTTLTVSS
VL: QIVLTQSPAIMSASPGEKVTMTCSGRSSENYMYWYQQKPGSPPRLWIYDTSNLVSGVPARFSGSRSGTSYSLTISSMEAEDAATYYCQQFNGYPYTFGGGTKLEIRR
notes: as for B1
B6: M-hProtS-6F265A1 monoclonal antibody (antibody, mouse IgG1, V domains shown)
VH: QVQLKESGPGLVAPSQSLSITCTVSGFSLTSYGVHWVRQPPGKGLGWLGVIWAGGRTDYNSALMSRLSISKDNSKSQVFLKMNSLQTDDTAIYYCARDYGNYNYAMDYWGQGISVTVSS
VL: ETTVTQSPASLSMAIGEKVTIRCITSTDIDDDVNWYQQKPGEPPKLLISEGNILRPGVPSRFSSSGYGTDFVFSIENMLSEDVGDYYCLQSDTLPTFGGGTKLEIKR
notes: Tested as antibody purified from hybridoma supernatant; mouse IgG1, kappa
B7: M-hProtS-2F188A1 monoclonal antibody (antibody, mouse IgG1, V domains shown)
VH: QVQLQQPGAELVRPGTSVKLSCKASGYTVTSYWMNWIKQRPEQGLEWIGRIDPNDSETLYNQKFKDKVILTVDKSSSTVYIQLSSLTSEDSAVYYCARWAGSGYAMDYWGQGTSVTVSS
VL: QIVLTQSPALLSASPGEKVTMTCSASSSVSYMYWYQQKPGSSPKPWIYVTSNLASGVPARFSGSGSGTSYSLTISSMEAEDAATYYCHQWSSDPYTFGGGTKLEIRR
notes: as for B1
B8: M-hProtS-6F153A2 monoclonal antibody (antibody, mouse IgG1, V domains shown)
VH: QIQLVQSGPELKKPGETVKISCKASGYTFSDYSMHWVKQTPGEGLKWMGWMNTGTGEPTYADDFKGRFAFSLETSATTAHLQINNLKNEDTATYFCARRLYYGTGLAYWGQGTLVTVSA
VL: DIVMTQSHKFMSTSVGDRVSITCKASQDVSTGVAWYQQKPGQSPKLLIFSASSRYSGVPDRFTGSGSGTDFTFTISSVQAEDLAVYYCQQHYSSPRTFGGGTKLEIKR
notes: as for B6
B9: M-hProtS-2F380A1 monoclonal antibody (antibody, mouse IgG1, V domains shown)
VH: EVKLEESGGGLVQPGGSMKLSCAASGFTFSDAWMDWVRQSPEKGLEWVAEVRSKADNHATYYAESVKGRFTISRDDSKSAVYLQMNSLRPEDTGIYYCTLTTAFLFDSWGQGTTLTVSS
VL: QIALTQSPAIMSASPGEKVTMTCSVNSSVSYMHWYQQKPGSSPRLWIYDTSNLVSGVPGRFSGSGSGTSYSLTLSSMEAEDAATYYCQQYSGYLYTFGGGTKLEIKR
notes: as for B1
B10: M-hProtS-6F128A2 monoclonal antibody (antibody, mouse IgG1, V domains shown)
VL: SIVMTQTPKFLLVSAGDRVTITCKASQSVSNDVAWYQQKPGQSPKLLIYYASNRYTGVPDRFTGSGYGTDFTFTISTVQAEDLAVYFCQQDYSSPYTFGGGTKLEIKR
V domain: QVQLQQPGAELVRPGASVKLSCKASGYTFTSYWINWVKQRPEQGLEWIGRIDPYDSETHYNQKFKDKAILTVDKSSSTAYMQLSSLTSEDSAVYYCARWGGSGYAMDYWGQGTSATVSS
notes: as for B6
B11: M-hProtS-6F120A1 monoclonal antibody (antibody, mouse IgG1, V domains shown)
VH: EIQLQQSGPELVKPGASVKVSCKASGYSFTDYNMYWVKQSHGKSLEWIGYIDPYNGGTSYNQKFKGKATLTVDKSSSTAFMHLNSLTSEDSAVYYCARERDYWYFDVRGAGTTVTVSS
VL: DIVLTQSPASLAVSLGQRATISCRASKSVSASGYSYMHWYQQKPGQPPKLLIYLASNLESGVPARFSGSGSGTDFTLNIHPVEEEDAATYYCQHSRELPLTFGAGTKLELKR
notes: as for B1
B12: M-hProtS-6F216A3 (mAb 0914) monoclonal antibody (antibody, V domains shown)
VH: B10 V domain with A115V
VL: B7 VL with T5S, L10I, S24R, V49A, S76R, M77V, H88Q, D93I, Y95P, R106K
notes: Mouse IgG1, kappa

target: T1, EGF1-4 domains of human Protein S with …; experiment: ELISA, calcium-free TBS;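 further: binding of mouse antibodies detected by ELISA with an HRP-conjugated goat anti-mouse IgG secondary and TMB substrate development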
Experimental: (§1) After incubation and washing a HRP-labelled goat-anti-mouse IgG secondary antibody (Jackson) was added and the ELISA was developed after incubation and wash by addition of 3,3′,5,5′-Tetramethylbenzidine.

Question: Does B1 bind?
Answer: binds

Question: Does B2 bind?
Answer: binds

Question: Does B3 bind?
Answer: binds

Question: Does B4 bind?
Answer: binds

Question: Does B5 bind?
Answer: binds

Question: Does B6 bind?
Answer: binds

Question: Does B7 bind?
Answer: binds

Question: Does B8 bind?
Answer: binds

Question: Does B9 bind?
Answer: binds

Question: Does B10 bind?
Answer: binds

Question: Does B11 bind?
Answer: binds

target: T2, EGF domain 1 and 2 of recombinant human …; experiment: ELISA, calcium-free TBS;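 further: binding of mouse antibodies detected by ELISA with an HRP-conjugated goat anti-mouse IgG secondary and TMB substrate development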
Experimental: as §1

Question: Does B3 bind?
Answer: no binding

Question: Does B4 bind?
Answer: no binding

Question: Does B8 bind?
Answer: no binding

Question: Does B11 bind?
Answer: no binding

target: T3, Gla-domain deleted recombinant human …; experiment: ELISA, calcium-free TBS;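 further: binding of mouse antibodies detected by ELISA with an HRP-conjugated goat anti-mouse IgG secondary and TMB substrate development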
Experimental: as §1

Question: Does B1 bind?
Answer: binds

Question: Does B2 bind?
Answer: binds

Question: Does B3 bind?
Answer: binds

Question: Does B4 bind?
Answer: binds

Question: Does B5 bind?
Answer: binds

Question: Does B6 bind?
Answer: binds

Question: Does B7 bind?
Answer: binds

Question: Does B8 bind?
Answer: binds

Question: Does B9 bind?
Answer: binds

Question: Does B10 bind?
Answer: binds

Question: Does B11 bind?
Answer: binds

target: T4, human Protein S (plasma derived); experiment: ELISA, calcium-free TBS;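 further: binding of mouse antibodies detected by ELISA with an HRP-conjugated goat anti-mouse IgG secondary and TMB substrate development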
Experimental: as §1

Question: Does B1 bind?
Answer: binds

Question: Does B2 bind?
Answer: binds

Question: Does B3 bind?
Answer: binds

Question: Does B4 bind?
Answer: binds

Question: Does B5 bind?
Answer: binds

Question: Does B7 bind?
Answer: binds

Question: Does B8 bind?
Answer: binds

Question: Does B9 bind?
Answer: binds

Question: Does B10 bind?
Answer: binds

Question: Does B11 bind?
Answer: binds

target: T5, EGF domain 3 and 4 of recombinant human …; experiment: ELISA, calcium-free TBS
Experimental: as §1

Question: Does B1 bind?
Answer: no binding

Question: Does B2 bind?
Answer: no binding

Question: Does B3 bind?
Answer: no binding

Question: Does B4 bind?
Answer: no binding

Question: Does B5 bind?
Answer: no binding

Question: Does B6 bind?
Answer: no binding

Question: Does B7 bind?
Answer: no binding

Question: Does B12 bind?
Answer: no binding

Question: Does B8 bind?
Answer: no binding

Question: Does B9 bind?
Answer: no binding

Question: Does B10 bind?
Answer: no binding

Question: Does B11 bind?
Answer: no binding
